Data on 2 molecules can be found in article PMC11098746 (2024).

What all share (assay): AVEXIS screen signal:noise (double-corrected)
One assay deals with T1, ADP141.
T1 chain: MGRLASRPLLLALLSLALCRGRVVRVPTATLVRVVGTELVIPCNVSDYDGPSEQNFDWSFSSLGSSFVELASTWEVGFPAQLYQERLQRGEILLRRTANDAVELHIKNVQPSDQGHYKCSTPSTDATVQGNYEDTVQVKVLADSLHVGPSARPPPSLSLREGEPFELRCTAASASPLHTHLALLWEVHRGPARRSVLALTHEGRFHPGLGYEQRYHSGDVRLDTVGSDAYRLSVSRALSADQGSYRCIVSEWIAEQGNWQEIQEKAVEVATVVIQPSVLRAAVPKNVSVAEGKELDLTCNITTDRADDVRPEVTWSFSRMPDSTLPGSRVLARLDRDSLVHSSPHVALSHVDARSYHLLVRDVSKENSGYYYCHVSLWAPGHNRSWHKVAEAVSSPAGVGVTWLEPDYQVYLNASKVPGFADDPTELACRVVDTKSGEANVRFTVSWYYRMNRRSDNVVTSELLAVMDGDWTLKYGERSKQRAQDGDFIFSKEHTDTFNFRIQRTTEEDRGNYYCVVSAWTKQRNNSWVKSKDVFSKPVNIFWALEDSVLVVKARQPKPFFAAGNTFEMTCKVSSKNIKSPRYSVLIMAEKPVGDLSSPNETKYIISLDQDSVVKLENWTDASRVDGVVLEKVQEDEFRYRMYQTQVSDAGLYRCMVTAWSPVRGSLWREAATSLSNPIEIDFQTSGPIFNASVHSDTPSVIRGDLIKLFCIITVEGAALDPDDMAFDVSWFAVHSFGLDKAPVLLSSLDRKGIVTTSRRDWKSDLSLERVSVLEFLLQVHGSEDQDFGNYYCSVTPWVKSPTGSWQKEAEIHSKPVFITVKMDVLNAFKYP

The target of the next assay is T2, ADP317.
T2 chain: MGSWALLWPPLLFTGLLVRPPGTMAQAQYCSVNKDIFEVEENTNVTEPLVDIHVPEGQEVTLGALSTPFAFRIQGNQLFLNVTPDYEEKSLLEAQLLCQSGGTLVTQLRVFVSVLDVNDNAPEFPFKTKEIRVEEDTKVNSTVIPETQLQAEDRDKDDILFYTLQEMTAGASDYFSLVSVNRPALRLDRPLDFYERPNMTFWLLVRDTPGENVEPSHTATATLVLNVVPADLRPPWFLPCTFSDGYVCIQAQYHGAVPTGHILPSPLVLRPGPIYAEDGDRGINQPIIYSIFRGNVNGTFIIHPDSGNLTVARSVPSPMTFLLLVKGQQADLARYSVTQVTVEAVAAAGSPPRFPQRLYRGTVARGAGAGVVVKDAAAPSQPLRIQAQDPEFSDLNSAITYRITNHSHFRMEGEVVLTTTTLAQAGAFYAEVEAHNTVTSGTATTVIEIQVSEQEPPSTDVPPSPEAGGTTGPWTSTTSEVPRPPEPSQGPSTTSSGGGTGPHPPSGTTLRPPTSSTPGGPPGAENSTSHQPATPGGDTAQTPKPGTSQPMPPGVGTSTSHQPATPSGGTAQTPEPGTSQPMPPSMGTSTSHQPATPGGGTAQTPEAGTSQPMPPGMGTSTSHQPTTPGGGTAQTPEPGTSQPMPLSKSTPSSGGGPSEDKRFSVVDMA

Another assay concerns the target T3, ADP276.
T3 chain: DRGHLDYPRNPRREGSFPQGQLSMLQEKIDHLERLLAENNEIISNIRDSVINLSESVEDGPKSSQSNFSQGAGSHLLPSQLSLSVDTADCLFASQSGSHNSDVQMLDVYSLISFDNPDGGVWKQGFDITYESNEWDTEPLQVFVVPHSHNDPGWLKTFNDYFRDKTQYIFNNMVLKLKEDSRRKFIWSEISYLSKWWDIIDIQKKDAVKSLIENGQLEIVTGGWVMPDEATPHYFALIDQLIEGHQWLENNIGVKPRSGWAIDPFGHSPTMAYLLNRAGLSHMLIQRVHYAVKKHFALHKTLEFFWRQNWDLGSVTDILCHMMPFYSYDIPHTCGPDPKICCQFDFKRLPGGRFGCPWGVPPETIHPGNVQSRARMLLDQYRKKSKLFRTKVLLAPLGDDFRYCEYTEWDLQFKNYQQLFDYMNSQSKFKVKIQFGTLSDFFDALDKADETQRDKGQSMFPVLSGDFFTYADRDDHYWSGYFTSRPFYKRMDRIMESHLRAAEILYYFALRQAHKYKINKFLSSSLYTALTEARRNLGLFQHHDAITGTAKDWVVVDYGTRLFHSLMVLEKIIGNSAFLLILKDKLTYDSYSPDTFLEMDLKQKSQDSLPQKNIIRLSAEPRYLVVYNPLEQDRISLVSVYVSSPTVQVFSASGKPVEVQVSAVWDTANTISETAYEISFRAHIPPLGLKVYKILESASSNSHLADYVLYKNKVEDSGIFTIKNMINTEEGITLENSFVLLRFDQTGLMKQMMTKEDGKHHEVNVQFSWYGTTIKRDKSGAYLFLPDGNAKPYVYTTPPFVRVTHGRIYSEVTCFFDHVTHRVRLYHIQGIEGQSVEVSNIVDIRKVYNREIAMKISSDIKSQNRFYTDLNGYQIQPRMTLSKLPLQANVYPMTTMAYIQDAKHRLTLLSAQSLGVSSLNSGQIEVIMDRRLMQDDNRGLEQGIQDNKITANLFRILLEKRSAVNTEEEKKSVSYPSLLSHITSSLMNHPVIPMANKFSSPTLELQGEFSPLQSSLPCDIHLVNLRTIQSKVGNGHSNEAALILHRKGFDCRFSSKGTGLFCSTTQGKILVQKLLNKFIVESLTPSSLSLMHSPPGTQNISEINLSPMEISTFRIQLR

Another assay deals with ADP363.

B1: ADP227 (protein)
chain: LKVPIENAPFVFNKKENDIKYFLDKETPDDFLSNNAYSLDITLENFPNPFFHPSLCNRYGFKFSYICDPNKILSRNIADQIEEILNYQRRNSKHFCVDKEVPYVLGVALINKLPYGISADTFASQIFEYWKLSNKDCNDGVLLFFVKEDTHFILKWKKGAQSIINFRTATSMNKAFNQYLRKYSLEYSILSAVKLTSQYLTEEIIPPTQTAQK
modifications: bait human Fc-tagged dimer; N-glycosylation sequons mutated in Plasmodium baits
With B1, the results for the binding score with ADP141 and with ADP317 were 6.72 and 5.21, respectively.

B2: ADP168 (protein)
chain: NNIKLNDKENINFESYFNKRTNEENVLNKNVAKEMGDTFVAHKAIELNINHHHVNNDKEFNNNNNNKHQPYYHNEHDKKFSESLKAHMDHLKILNNDLKQHIDKKERNEIYENNDLKKYIIKEIQNNKYLNKEKKSSEDIQILEEHSKKLQKEIHEWLESVNNIEEKSNILKNIKSQLLNNIASLNHALSEEIKNINDIKELQKQQNDLFSENWLYFLPSSSDYLLNEKKKNLYDNQDNSMKDDINNNDKYNIFNYLQNVQDKDNQYEVMKQDNNNIHSGSS
modifications: bait human Fc-tagged dimer; N-glycosylation sequons mutated in Plasmodium baits
In the case of B2, the results for the binding score with ADP276 and with ADP363 were 5.43 and 198, respectively.
